Laboratory results: US8865654B2, “Eye drops” (Santen Pharmaceutical Co., Ltd., priority 2009, dated 2014)
No end group written: not given here.

Assay: Stability test of eye drop (residual ratio by HPLC after storage at 40° C.)
Assay type: physicochemical
Settings: eye drop SSSR acetate 0.003% + FGLM hydrochloride 0.05% (w/v)
Procedure: Each sample (100 mL, eye drop) containing the SSSR acetate at 0.003% (w/v) and the FGLM hydrochloride at 0.05% (w/v) was prepared at a pH in a range of 2.5 to 7.0 and stored at 40° C. The concentrations of the SSSR and the FGLM were measured by the HPLC method after 2 months storage, 3 months storage, and 6 months storage, and the residual ratios of the SSSR and the FGLM were determined, respectively.

## Phe-Gly-Leu-Met-NH2 (FGLM-NH2) [tetrapeptide at the C-terminal of Substance P, used as hydrochloride]
pH 2.5, 40° C., 2 months
  Residual ratio of FGLM: 79%
pH 2.5, 40° C., 3 months
  Residual ratio of FGLM: 72%
pH 2.5, 40° C., 6 months
  Residual ratio of FGLM: 54%
pH 3.0, 40° C., 2 months
  Residual ratio of FGLM: 91%
pH 3.0, 40° C., 3 months
  Residual ratio of FGLM: 89%
pH 3.0, 40° C., 6 months
  Residual ratio of FGLM: 79%
pH 3.5, 40° C., 2 months
  Residual ratio of FGLM: 95%
pH 3.5, 40° C., 3 months
  Residual ratio of FGLM: 94%
pH 3.5, 40° C., 6 months
  Residual ratio of FGLM: 90%
pH 4.0, 40° C., 2 months
  Residual ratio of FGLM: 96%
pH 4.0, 40° C., 3 months
  Residual ratio of FGLM: 96%
pH 4.0, 40° C., 6 months
  Residual ratio of FGLM: 94%
pH 4.5, 40° C., 2 months
  Residual ratio of FGLM: 97%
pH 4.5, 40° C., 3 months
  Residual ratio of FGLM: 97%
pH 4.5, 40° C., 6 months
  Residual ratio of FGLM: 96%
pH 5.0, 40° C., 2 months
  Residual ratio of FGLM: 97%
pH 5.0, 40° C., 3 months
  Residual ratio of FGLM: 97%
pH 5.0, 40° C., 6 months
  Residual ratio of FGLM: 97%
pH 5.5, 40° C., 2 months
  Residual ratio of FGLM: 97%
pH 5.5, 40° C., 3 months
  Residual ratio of FGLM: 97%
pH 5.5, 40° C., 6 months
  Residual ratio of FGLM: 96%
pH 6.0, 40° C., 2 months
  Residual ratio of FGLM: 96%
pH 6.0, 40° C., 3 months
  Residual ratio of FGLM: 96%
pH 6.0, 40° C., 6 months
  Residual ratio of FGLM: 95%
pH 6.5, 40° C., 2 months
  Residual ratio of FGLM: 95%
pH 6.5, 40° C., 3 months
  Residual ratio of FGLM: 95%
pH 6.5, 40° C., 6 months
  Residual ratio of FGLM: 93%
pH 7.0, 40° C., 2 months
  Residual ratio of FGLM: 94%
pH 7.0, 40° C., 3 months
  Residual ratio of FGLM: 93%
pH 7.0, 40° C., 6 months
  Residual ratio of FGLM: 90%

## Ser-Ser-Ser-Arg (SSSR; printed: Ser-Ser-Ser-Arg) [partial peptide of insulin-like growth factor I, used as acetate]
pH 2.5, 40° C., 2 months
  Residual ratio of SSSR: 100%
pH 2.5, 40° C., 3 months
  Residual ratio of SSSR: 100%
pH 2.5, 40° C., 6 months
  Residual ratio of SSSR: 100%
pH 3.0, 40° C., 2 months
  Residual ratio of SSSR: 99%
pH 3.0, 40° C., 3 months
  Residual ratio of SSSR: 96%
pH 3.0, 40° C., 6 months
  Residual ratio of SSSR: 98%
pH 3.5, 40° C., 2 months
  Residual ratio of SSSR: 99%
pH 3.5, 40° C., 3 months
  Residual ratio of SSSR: 96%
pH 3.5, 40° C., 6 months
  Residual ratio of SSSR: 93%
pH 4.0, 40° C., 2 months
  Residual ratio of SSSR: 98%
pH 4.0, 40° C., 3 months
  Residual ratio of SSSR: 97%
pH 4.0, 40° C., 6 months
  Residual ratio of SSSR: 92%
pH 4.5, 40° C., 2 months
  Residual ratio of SSSR: 97%
pH 4.5, 40° C., 3 months
  Residual ratio of SSSR: 97%
pH 4.5, 40° C., 6 months
  Residual ratio of SSSR: 89%
pH 5.0, 40° C., 2 months
  Residual ratio of SSSR: 97%
pH 5.0, 40° C., 3 months
  Residual ratio of SSSR: 87%
pH 5.0, 40° C., 6 months
  Residual ratio of SSSR: 81%
pH 5.5, 40° C., 2 months
  Residual ratio of SSSR: 94%
pH 5.5, 40° C., 3 months
  Residual ratio of SSSR: 86%
pH 5.5, 40° C., 6 months
  Residual ratio of SSSR: 80%
pH 6.0, 40° C., 2 months
  Residual ratio of SSSR: 90%
pH 6.0, 40° C., 3 months
  Residual ratio of SSSR: 77%
pH 6.0, 40° C., 6 months
  Residual ratio of SSSR: 68%
pH 6.5, 40° C., 2 months
  Residual ratio of SSSR: 84%
pH 6.5, 40° C., 3 months
  Residual ratio of SSSR: 67%
pH 6.5, 40° C., 6 months
  Residual ratio of SSSR: 51%
pH 7.0, 40° C., 2 months
  Residual ratio of SSSR: 70%
pH 7.0, 40° C., 3 months
  Residual ratio of SSSR: 51%
pH 7.0, 40° C., 6 months
  Residual ratio of SSSR: 35%
